Source: article PMC2793005, “Dissecting the Role of Critical Residues and Substrate Preference of a Fatty Acyl-CoA Synthetase (FadD13) of Mycobacterium tuberculosis” (PLoS ONE, 2009)

Molecular target: the molecule itself
Assay: SEC

B1: Fatty Acyl-CoA Synthetase FadD13 (Rv3089) of Mycobacterium tuberculosis, N-terminal 6x histidine tag (enzyme)
chain: MKNIGWMLRQRATVSPRLQAYVEPSTDVRMTYAQMNALANRCADVLTALGIAKGDRVALLMPNSVEFCCLFYGAAKLGAVAVPINTRLAAPEVSFILSDSGSKVVIYGAPSAPVIDAIRAQADPPGTVTDWIGADSLAERLRSAAADEPAVECGGDDNLFIMYTSGTTGHPKGVVHTHESVHSAASSWASTIDVRYRDRLLLPLPMFHVAALTTVIFSAMRGVTLISMPQFDATKVWSLIVEERVCIGGAVPAILNFMRQVPEFAELDAPDFRYFITGGAPMPEALIKIYAAKNIEVVQGYALTESCGGGTLLLSEDALRKAGSAGRATMFTDVAVRGDDGVIREHGEGEVVIKSDILLKEYWNRPEATRDAFDNGWFRTGDIGEIDDEGYLYIKDRLKDMIISGGENVYPAEIESVIIGVPGVSEVAVIGLPDEKWGEIAAAIVVADQNEVSEQQIVEYCGTRLARYKLPKKVIFAEAIPRNPTGKILKTVLREQYSATVPK
notes: also called native FadD13; NP; not shown: His6, N-terminal, kept
stoichiometry N: 2
